Usually Kd stands for the equilibrium constant for the complex coming apart.

For assay [1], the target named is TAP (Homo sapiens) (UniProt Q03518). To be noted: cited from earlier work.
Assay [2] shares this target. The note with it: cited from earlier work. This is another data set of the same source.
Assay [3] deals with rT1/hT2 (rat TAP1 with a human C-terminus, with human TAP2-FLAG) (rat | human) (UniProt P36370).
The target of assay [4] is rT1/rT2 (rat TAP1 with a human C-terminus, with rat TAP2-FLAG) (rat | human) (UniProt P36370).
The target in assay [5] is T1, hT1/rT2 (human TAP1 with rat TAP2-FLAG) (human | rat, UniProt Q03518 1-748; P36372 1-703).
T1 sequence 1: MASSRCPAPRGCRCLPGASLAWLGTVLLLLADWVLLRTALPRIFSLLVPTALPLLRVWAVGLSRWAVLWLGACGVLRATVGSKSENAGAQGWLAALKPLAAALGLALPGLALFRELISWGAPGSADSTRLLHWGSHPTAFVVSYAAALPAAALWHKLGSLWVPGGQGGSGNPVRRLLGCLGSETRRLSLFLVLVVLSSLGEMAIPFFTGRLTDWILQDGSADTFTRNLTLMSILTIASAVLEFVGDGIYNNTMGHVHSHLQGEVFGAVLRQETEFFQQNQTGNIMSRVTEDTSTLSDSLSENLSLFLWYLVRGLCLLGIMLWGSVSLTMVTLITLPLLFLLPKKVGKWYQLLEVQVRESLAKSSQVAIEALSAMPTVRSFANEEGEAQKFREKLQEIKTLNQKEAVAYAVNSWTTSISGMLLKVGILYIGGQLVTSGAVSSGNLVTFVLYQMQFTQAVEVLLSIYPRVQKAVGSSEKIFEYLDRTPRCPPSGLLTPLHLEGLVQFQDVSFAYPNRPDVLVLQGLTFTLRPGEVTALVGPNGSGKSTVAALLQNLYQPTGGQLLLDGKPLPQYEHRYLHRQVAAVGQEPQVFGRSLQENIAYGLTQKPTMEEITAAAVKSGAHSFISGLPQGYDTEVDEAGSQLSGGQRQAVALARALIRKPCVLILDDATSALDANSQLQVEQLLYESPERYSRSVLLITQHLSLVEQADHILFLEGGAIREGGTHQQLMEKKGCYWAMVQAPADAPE
T1 sequence 2: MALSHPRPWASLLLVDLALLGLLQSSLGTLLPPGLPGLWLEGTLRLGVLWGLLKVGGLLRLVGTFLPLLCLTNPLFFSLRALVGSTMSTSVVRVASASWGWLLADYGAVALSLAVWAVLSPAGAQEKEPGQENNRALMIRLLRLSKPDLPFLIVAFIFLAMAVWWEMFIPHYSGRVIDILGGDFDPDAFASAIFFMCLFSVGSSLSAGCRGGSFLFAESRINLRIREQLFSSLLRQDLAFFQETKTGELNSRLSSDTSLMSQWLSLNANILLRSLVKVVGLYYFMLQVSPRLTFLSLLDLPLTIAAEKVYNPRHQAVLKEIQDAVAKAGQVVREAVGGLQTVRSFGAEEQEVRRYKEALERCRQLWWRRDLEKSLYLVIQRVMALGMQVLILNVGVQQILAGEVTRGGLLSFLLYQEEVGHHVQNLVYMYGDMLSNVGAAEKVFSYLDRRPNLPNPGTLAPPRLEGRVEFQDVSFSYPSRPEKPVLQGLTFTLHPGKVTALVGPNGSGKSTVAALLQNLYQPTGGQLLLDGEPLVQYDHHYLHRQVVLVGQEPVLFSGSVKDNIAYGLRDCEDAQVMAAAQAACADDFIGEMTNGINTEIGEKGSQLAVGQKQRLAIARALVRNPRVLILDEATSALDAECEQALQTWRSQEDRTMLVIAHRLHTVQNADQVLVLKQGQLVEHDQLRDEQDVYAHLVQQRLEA
The assay can be described thus: cell-based or functional assay.

Assay [6] addresses T2, hT1/hT2 (human TAP1 with human TAP2-FLAG) (human, UniProt Q03518 1-748; Q03519 1-686).
T2 sequence 1: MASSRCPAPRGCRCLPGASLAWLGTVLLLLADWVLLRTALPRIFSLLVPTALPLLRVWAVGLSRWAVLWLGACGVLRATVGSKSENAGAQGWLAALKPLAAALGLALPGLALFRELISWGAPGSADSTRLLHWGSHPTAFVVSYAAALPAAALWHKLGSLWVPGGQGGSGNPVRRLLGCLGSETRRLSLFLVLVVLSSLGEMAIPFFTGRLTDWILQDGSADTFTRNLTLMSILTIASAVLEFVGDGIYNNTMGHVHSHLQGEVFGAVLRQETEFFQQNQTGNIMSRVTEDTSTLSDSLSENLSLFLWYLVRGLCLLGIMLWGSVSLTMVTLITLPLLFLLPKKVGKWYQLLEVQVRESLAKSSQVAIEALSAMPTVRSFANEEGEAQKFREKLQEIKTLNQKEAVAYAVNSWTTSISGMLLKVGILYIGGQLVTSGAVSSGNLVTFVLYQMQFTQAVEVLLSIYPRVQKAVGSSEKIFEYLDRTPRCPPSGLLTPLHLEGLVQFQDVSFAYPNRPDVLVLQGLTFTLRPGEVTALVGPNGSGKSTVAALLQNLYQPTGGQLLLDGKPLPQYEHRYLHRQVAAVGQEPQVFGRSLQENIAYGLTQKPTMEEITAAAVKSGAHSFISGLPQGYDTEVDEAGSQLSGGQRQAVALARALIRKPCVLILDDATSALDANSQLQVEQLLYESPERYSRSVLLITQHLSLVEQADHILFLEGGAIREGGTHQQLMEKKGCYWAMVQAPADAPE
T2 sequence 2: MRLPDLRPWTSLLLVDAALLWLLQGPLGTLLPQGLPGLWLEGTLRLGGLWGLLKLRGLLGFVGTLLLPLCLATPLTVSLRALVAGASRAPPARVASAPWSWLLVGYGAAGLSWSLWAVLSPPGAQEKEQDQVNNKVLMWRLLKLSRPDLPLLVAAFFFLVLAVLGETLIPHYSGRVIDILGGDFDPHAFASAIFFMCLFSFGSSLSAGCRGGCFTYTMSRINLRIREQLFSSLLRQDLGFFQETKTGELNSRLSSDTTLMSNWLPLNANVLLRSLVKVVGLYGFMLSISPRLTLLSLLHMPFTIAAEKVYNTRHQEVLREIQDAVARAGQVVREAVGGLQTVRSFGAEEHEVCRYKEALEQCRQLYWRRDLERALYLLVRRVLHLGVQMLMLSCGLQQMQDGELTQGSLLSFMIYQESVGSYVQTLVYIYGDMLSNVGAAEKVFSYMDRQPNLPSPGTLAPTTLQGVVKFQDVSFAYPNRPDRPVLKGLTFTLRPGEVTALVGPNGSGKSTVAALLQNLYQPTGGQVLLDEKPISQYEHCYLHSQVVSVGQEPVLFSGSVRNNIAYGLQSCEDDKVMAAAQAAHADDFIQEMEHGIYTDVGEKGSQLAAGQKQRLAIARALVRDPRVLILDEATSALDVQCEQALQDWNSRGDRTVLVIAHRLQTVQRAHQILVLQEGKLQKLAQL
The assay is described as follows: cell-based or functional assay.

Read-outs that look alike come from different tables or passages of the source.

As to ICP47 1-53 (from UniProt P03170), in assay [1], the Kd is 50 nM. Turning to ICP47 1-48 (from UniProt P03170), in assay [2], the Kd was 126 nM.

B1: ICP47-HA (wild-type ICP47 with a C-terminal HA-tag), in CMT64.5 cells (natural protein)
chain: MSWALEMADTFLDTMRVGPRTYADVRDEINKRGREDREAARTAVHDPERPLLRSPGLLPEIAPNASLGVAHRRTGGTVTDSPRNPVTR
As for B1, the MHC class I surface expression (mAb 20-8-4) on CMT64.5 cells, ICP47-positive relative to ICP47-negative cells amounted to 47 % expression in assay [3], 101 % expression in assay [4], 88 % expression in assay [5] and 17 % expression in assay [6].

B2: ICP47m-HA (ICP47 with Pro50Leu51Leu52 mutated to AlaAlaAla, C-terminal HA-tag), in CMT64.5 cells (natural protein, herpes simplex virus type-1 (HSV-1), UniProt P03170 1-88, looked up)
chain: MSWALEMADTFLDTMRVGPRTYADVRDEINKRGREDREAARTAVHDPERAAARSPGLLPEIAPNASLGVAHRRTGGTVTDSPRNPVTR
Consider B2, for which, in assay [6], the “MHC class I surface expression (mAb 20-8-4) on CMT64.5 cells, ICP47-positive relative to ICP47-negative cells” value is 26 % expression.

(Values after publication PMC5462769, “A highly conserved sequence of the viral TAP inhibitor ICP47 is required for freezing of the peptide transport cycle” (Scientific Reports, 2017).)
